Patent publication US20240190990A1 (BEIGENE SWITZERLAND, published 2024)
One block for each binder: values may come before it.

Experiments:
[1] = target: T1, full-length human CEA on cells (human, UniProt P06731 35-685); assay: cell-based or functional assay
T1 sequence: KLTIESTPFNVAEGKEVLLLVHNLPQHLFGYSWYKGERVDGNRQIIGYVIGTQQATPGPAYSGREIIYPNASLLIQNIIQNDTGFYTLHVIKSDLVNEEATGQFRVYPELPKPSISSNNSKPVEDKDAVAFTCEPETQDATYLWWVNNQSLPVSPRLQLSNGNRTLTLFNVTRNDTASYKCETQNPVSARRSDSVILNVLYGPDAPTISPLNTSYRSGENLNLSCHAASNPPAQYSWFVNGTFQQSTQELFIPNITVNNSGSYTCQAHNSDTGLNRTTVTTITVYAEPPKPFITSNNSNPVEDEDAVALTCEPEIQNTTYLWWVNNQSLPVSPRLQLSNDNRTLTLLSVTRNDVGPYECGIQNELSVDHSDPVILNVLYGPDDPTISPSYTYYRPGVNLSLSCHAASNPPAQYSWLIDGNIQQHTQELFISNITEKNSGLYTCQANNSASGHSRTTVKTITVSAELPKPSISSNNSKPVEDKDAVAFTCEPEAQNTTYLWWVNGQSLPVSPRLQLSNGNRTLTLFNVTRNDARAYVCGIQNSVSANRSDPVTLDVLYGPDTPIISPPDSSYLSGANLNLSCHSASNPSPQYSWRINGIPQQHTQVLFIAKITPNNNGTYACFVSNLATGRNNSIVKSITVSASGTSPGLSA

[2] = target: T1, full-length human CEA on cells; assay: flow cytometry on LOVO cells, Alexa Fluor 647 anti-human IgG Fc
Protocol: For this experiment, anti-human IgG (Fc) antibody was immobilized on an activated CM5 biosensor chip (Cat. No. BR100839, GE Life Sciences). Anti-CEA antibodies were flowed over the chip surface and captured by anti-human Fab antibody. […] For flow cytometry, CEA-expressing cells (10⁵ cells/well) were incubated with various concentrations of purified affinity-matured antibodies, followed by binding with Alexa Fluro-647-labeled anti-hu IgG Fc antibody (Cat. No. 409320, BioLegend, USA). Cell fluorescence was quantified using a flow cytometer (Guava easyCyte™ 8HT, Merck-Millipore, USA). The equilibrium dissociation constant (KD) was calculated as the ratio koff/kₒₙ.

[3] = target: T1, full-length human CEA on cells; assay: flow cytometry on MKN45 cells, Alexa Fluor 647 anti-human IgG Fc
Protocol: For flow cytometry, CEA-expressing MKN45 cells (10⁵ cells/well) were incubated with various concentrations of purified affinity-matured antibodies, followed by binding with Alexa Fluro-647-labeled anti-hu IgG Fc antibody (Cat. No. 409320, BioLegend, USA). Cell fluorescence was quantified using a flow cytometer (Guava easyCyte™ 8HT, Merck-Millipore, USA).

[4] = target: T2, CEACAM8 on transfected HEK293 cells (human, UniProt P31997 35-320); assay: flow cytometry on transiently transfected HEK293 cells, Alexa Fluor 647 anti-human IgG Fc [panel B]
T2 sequence: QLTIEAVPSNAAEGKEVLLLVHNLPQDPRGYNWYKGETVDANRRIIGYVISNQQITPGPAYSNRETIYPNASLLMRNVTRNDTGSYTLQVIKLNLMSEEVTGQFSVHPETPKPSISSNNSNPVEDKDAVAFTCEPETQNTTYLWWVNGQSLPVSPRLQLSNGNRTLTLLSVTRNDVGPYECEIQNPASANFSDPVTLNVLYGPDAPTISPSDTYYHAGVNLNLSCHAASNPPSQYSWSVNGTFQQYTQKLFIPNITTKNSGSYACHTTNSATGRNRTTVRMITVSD
Protocol: (§1) Cell fluorescence was quantified using a flow cytometer (Guava easyCyte™ 8HT, Merck-Millipore, USA). For antigen ELISA, CEACAM1(SEQ ID NO:64) (Cat. No. 10822-H08H, Sino Biological, China), CHIM (SEQ ID NO: 63), CEA (SEQ ID NO:55) or CEACAM6 (SEQ ID NO:57) were coated in 96-well plates at a concentration of 10 μg/ml overnight at 4° C. The HRP-linked anti-human Fc (Fc specific) IgG antibody (Cat. No. A0170, Sigma, USA) and substrate (Cat. No. 00-4201-56, eBioscience, USA) were used for development, and absorbance signal at the wavelength of 450 nm was measured using a plate reader (SpectraMax Paradigm, Molecular Devices, USA).

[5] = target: T3, CEACAM7 on transfected HEK293 cells (human, UniProt Q14002 36-242); assay: as above
T3 sequence: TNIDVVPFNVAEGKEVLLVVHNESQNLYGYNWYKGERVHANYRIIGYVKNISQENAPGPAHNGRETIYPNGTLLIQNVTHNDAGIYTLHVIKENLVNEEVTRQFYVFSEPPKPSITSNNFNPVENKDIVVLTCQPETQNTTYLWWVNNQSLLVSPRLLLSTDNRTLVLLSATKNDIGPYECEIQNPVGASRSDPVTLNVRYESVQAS
Protocol: as §1

[6] = target: T4, BSA (Bos taurus, UniProt P02769); assay: antigen ELISA: antigen coated at 10 ug/ml, HRP anti-mouse IgG [panel B]
T4 construct: coated on the ELISA plate as negative control antigen; also called bovine serum albumin
T4 sequence (P02769 25-607 limits assumed): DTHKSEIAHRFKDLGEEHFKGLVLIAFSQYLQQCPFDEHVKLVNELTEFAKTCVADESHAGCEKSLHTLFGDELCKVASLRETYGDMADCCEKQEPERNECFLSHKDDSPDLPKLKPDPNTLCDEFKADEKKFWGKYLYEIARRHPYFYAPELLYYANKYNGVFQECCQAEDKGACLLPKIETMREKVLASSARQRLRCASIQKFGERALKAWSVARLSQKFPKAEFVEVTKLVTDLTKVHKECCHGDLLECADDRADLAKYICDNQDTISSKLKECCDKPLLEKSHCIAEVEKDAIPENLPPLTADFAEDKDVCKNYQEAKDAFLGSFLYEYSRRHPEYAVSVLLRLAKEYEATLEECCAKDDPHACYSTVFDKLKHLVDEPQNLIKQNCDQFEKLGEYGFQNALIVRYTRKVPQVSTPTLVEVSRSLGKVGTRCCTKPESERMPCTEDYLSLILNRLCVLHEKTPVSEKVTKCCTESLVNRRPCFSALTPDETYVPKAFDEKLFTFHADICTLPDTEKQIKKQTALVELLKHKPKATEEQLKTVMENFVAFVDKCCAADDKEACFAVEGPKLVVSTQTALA
Protocol: For this experiment, sCEA, CHIM, monkey CEA, CEA-v and BSA were coated in 96-well plates at a high concentration of 10 μg/ml overnight at 4° C. […] The HRP-linked anti-mouse IgG antibody (Cat. No. 7076S, Cell Signaling Technology, USA) and substrate (Cat. No. 00-4201-56, eBioscience, USA) were used for development, and absorbance signal at the wavelength of 450 nm was measured using a plate reader (SpectraMax Paradigm, Molecular Devices, USA).

ADCC (LDH release), EC50 [1]: ~6.7 ng/mL
EC50 (read off the curve) [2]: ~1 nM
B1: BGA113 (antibody, human IgG1, V domains shown)
VH: QVQLVQSGAEVKKPGASVKVSCKASGYIFTSYYLHWVRQAPGQGLEWIGYINPQTGYTSYAQKFQGRVTMTRDTSTSTVYMELSSLRSEDTAVYYCAREYGNYNYPLDYWGQGTLVTVSS
VL: DIQMTQSPSSLSASVGDRVTITCRASENQYGYLAWYQQKPGKVPKLLIYNYKNLVEGVPSRFSGSGSGTDFTLTISSLQPEDVATYYCQHHLGTPYTFGQGTKVEIK
notes: W33Y (VH), T51Y (VL) on BGA131F-ph-M; wild-type human IgG1 format

EC50 (read off the curve) [2]: ~6 nM
B2: BGA131F (antibody, human IgG1, V domains shown)
VH: QVQLVQSGAEVKKPGASVKVSCKASGYIFTSYWLHWVRQAPGQGLEWIGYINPQTGYTSYAQKFQGRVTMTRDTSTSTVYMELSSLRSEDTAVYYCAREYGNYNYPLDYWGQGTLVTVSS
VL: DIQMTQSPSSLSASVGDRVTITCRASENIYGYLAWYQQKPGKVPKLLIYNAKNLVEGVPSRFSGSGSGTDFTLTISSLQPEDVATYYCQHHYGTPYTFGQGTKVEIK
notes: BGA131 with N54Q, N59S, S61A in VH; human IgG1 / kappa format

EC50 (read off the curve) [2]: ~5 nM
B3: BGA131F-ph-M (antibody, V domains shown)
VH: QVQLVQSGAEVKKPGASVKVSCKASGYIFTSYWLHWVRQAPGQGLEWIGYINPQTGYTSYAQKFQGRVTMTRDTSTSTVYMELSSLRSEDTAVYYCAREYGNYNYPLDYWGQGTLVTVSS
VL: DIQMTQSPSSLSASVGDRVTITCRASENQYGYLAWYQQKPGKVPKLLIYNTKNLVEGVPSRFSGSGSGTDFTLTISSLQPEDVATYYCQHHLGTPYTFGQGTKVEIK
notes: BGA13-1F heavy chain with a selected kappa light chain, IgG; also called BGA1311F-ph-M

EC50 (read off the curve) [3]: ~0.5 µg/mL
B4: BGA113K (antibody, human IgG1, V domains shown)
VH: QVQLVQSGAEVKKPGASVKVSCKASGYIFTSYYLHWVRQAPGQGLEWIGYINPQTGKTSYAQKFQGRVTMTRDTSTSTVYMELSSLRSEDTAVYYCAREYGNYNYPLDYWGQGTLVTVSS
VL: DIQMTQSPSSLSASVGDRVTITCRASENQYGYLAWYQQKPGKVPKLLIYNYKNLVEGVPSRFSGSGSGTDFTLTISSLQPEDVATYYCQHHLGTPYTFGQGTKVEIK
notes: BGA113 with Y57K in the heavy chain; generated in human IgG1 format; also called BGA113 variant Y57K; Y57K
binding result [4]: no binding (tested: 2 ug/ml (from paragraph 184; not on the sheet))
binding result [5]: no binding (tested: 2 ug/ml (from paragraph 184; not on the sheet))

binding result [6]: no binding
B5: BGA13 (antibody, V domains shown)
VH: QVQLQQSGAELAKSGASVKMSCKASGYIFTSYWLHWVKQRPGQGLEWIGYINPNTGYTNYSQKFKDKATLTADKSSSTAYMQLSSLTSEDSAVYYCAREYGNYNYPLDYWGQGTSVTVSS
VL: DIQMTQSPASLSASVGETVTITCRASENIYGYLAWYQQKQGKSPQLLVFNAKNLVEGVPSRFSGSGSGTQFSLKINSLQPEDFGSYYCQHHYGTPYTFGGGTKLEIK
notes: murine monoclonal IgG purified from hybridoma supernatant; also called murine anti-CEA antibody BGA13
